Laboratory results as given in patent publication US20250382373A1 (BIOCYTOGEN PHARMACEUTICALS BEIJING, published 2025).
Positions count from the first letter of the chain named.

B1: E-6C4 (antibody, V domains shown)
VH: QVQLQQWGPGLVKPSQTLSLTCTVSGGSINSGDYYWSWIRQPPGKGLESIGYIYYSGSTYYNPSLKSRVTISADTSKNQFSLKLTSVTAADTAVYYCARERVYSSSLDYWGQGTLVTVSS
VL: not shown
B2: E-3A8 (antibody, V domains shown)
VH: EVQLVESGGGLVQPGGSLRLSCAVSGFIFSSYEMNWVRQAPGKGLEWVSYISSSGSTIYYADSVKGRFTISRDNAMNSLNLQMNSLRDEDTAVYYCVRVWYSSGWSGCFAYWGQGSLVTVSS
VL: not shown
B3: E-3D8 (antibody, V domains shown)
VH: B2 VH with V24A, M76K, N80Y, D88A, E89D, V93I, V97A, S116T
VL: not shown
B4: E-2B7 (antibody, V domains shown)
VH: EVQLQQWGPGLVKPSQTLSLTCTVSGGSINSGDYYWSWIRQPPGKGLEWIGYIYYSGSTYYNPSLKSRVTISLDTSKNQLSLKLSSVTAADTAVYYCARNNDFGDYLYFDNWGQGTLVTVSS
VL: not shown
B5: E-9A6 (antibody, V domains shown)
VH: EVQLQQSGPGLVKPSQTLSLTCTVSGGSISSGDYYWNWIRQPPGKGLEWIGYIYYSGSTYYNPSLKSRVTISVDTSKNQFSLKLSSVTAADTAVYYCAREGVYTIMVDYWGQGTLVTVSS
VL: not shown
B6: E-9H2 (antibody, V domains shown)
VH: EVQLVESGPGLVKPSQTLSLTCTVSGDSISSGDYYWSWIRQPPGKGLEWIGYIYYSGSTYYNPSLKSRVIISLDTSKNQFSLKLISVTAADTAVYYCARVGVYSTSRDYWGQGTLVTVSS
VL: not shown
B7: E-9D2 (antibody, V domains shown)
VH: EVQLQESGPGLVKPSQTLSLTCTVSGGSISSGDYYWSWIRQPPGKGLEWIGYIYYSGSTYYNPSLKSRVTISVDTSKNQFSLRLSSVTAADTAVYYCARDLVYYYALDVWGQGTTVTVSS
VL: not shown
B8: E-9F3 (antibody, V domains shown)
VH: QVQLQESGPGLVKPSQTLSLTCTVSGGSINSGDYYWSWIRQPPGKGLEWIGHIYYSGITYYNPSLKSRVTISADTSKNQFSLKLTSVTVADTAVYYCDRAGVYHDMDVWGQGTTVTVSS
VL: not shown
B9: M-8D9 (antibody, V domains shown)
VH: QVQLQESGPGLVKPSETLSLTCTVSGGSISGHYWSWIRQSPGKGLEWIGYITYSGSTNYNPSLKSRVTISVDTSKNQFSLKLSSVTAADTAVYYCGTIAVAGRVYYYGVDVWGRGTTVTVSS
VL: not shown
B10: M-2G10 (antibody, V domains shown)
VH: EVQLVESGGGVVQPGRSLRLSCAASGFTFNICGIHWVRQAPGKGLEWVATISHDANDKYYADSVKGRFTISRDNSKNTLYLQMNSLRAEDTAVYYCARDGNRGYDGYFDYWGQGTLVTVSS
VL: not shown
B11: M-1E9 (antibody, V domains shown)
VH: QVQLQQWGAGLLKPSETLSLTCVVFGGSFSGYYWSWIRQPPGKGLEWIGEINHSGSTNYNPSLKSRVTVSVDTSKKQFSLNLRSVTAADTAVYYCARGRGIAAAGTYFDYWGQGNLVTVSS
VL: not shown
B12: M-2F11 (antibody, V domains shown)
VH: EVQLVESGPGLVKPSETLSLTCTVSGGSISSNYWSWIRQPPGKGLEWIGYIYHSGSTNYNPSLKSRVTISVDTSKNQFSLKLSSVTAADTAVYFCARGPVSIFGVVKYIDLWGRGTLVTVSS
VL: not shown
B13: E-6C4-M-2G10 (bispecific antibody)
VH 1: B1 VH
VH 2: B10 VH
light: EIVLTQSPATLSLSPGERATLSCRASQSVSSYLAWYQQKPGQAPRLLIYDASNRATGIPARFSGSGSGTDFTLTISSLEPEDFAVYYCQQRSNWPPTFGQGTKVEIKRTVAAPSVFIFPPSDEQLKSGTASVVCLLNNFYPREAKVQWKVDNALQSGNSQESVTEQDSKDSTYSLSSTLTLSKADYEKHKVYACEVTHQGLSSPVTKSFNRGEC
notes: also called anti-EGFR/MET bispecific antibody E-6C4-M-2G10
B14: E-6C4-M-2F11 (bispecific antibody)
VH 1: B1 VH
VH 2: B12 VH
light: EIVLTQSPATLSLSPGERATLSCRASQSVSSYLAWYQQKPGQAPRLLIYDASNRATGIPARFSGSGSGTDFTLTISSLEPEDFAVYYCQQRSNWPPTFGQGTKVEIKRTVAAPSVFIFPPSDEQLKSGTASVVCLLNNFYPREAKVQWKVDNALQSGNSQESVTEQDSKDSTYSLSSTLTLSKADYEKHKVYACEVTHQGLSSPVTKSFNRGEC
notes: also called anti-EGFR/MET bispecific antibody E-6C4-M-2F11
B15: E-2B7-M-2F11 (bispecific antibody)
VH 1: B4 VH
VH 2: B12 VH
light: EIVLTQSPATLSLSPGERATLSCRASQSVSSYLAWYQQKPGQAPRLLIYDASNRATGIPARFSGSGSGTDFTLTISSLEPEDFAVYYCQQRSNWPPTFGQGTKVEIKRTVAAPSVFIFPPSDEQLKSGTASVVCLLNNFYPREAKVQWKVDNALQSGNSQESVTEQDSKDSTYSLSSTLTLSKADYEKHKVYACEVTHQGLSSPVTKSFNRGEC
notes: 1+1 IgG1 bispecific with knobs-into-holes and a common light chain: first VH is the EGFR arm (E-2B7), second VH the MET arm (M-2F11); also called anti-EGFR/MET bispecific antibody E-2B7-M-2F11

Molecular target: T1, human EGFR on CHO-S-hEGFR cells (human, UniProt P00533 25-645)
Assay: flow cytometry on CHO-S-hEGFR cells

| Binder | Percentage of Positive Cells [%] |
| --- | --- |
| B1 | 26.4 |
| B2 | 31.2 |
| B3 | 28.8 |
| B4 | 26.1 |

Molecular target: T1, human EGFR on CHO-S-hEGFR cells
Assay: flow cytometry on CHO-S-hEGFR cells
Remark: another data set of the same source

| Binder | Percentage of Positive Cells [%] |
| --- | --- |
| B5 | 56.9 |
| B6 | 44.3 |
| B7 | 38.7 |
| B8 | 53.1 |

Molecular target: human MET on hMET-NIH3T3 cells (human, UniProt P08581 25-1390)
Assay: flow cytometry on hMET-NIH3T3 cells; note: test concentration or dose not given here

| Binder | Percentage of Positive Cells [%] |
| --- | --- |
| B9 | 99.8 |

Molecular target: T2, human MET on SNU-5 cells (human, UniProt P08581 25-1390)
T2 construct: whole, on cells; Endogenous MET of SNU-5 cells
T2 sequence (P08581 25-1390): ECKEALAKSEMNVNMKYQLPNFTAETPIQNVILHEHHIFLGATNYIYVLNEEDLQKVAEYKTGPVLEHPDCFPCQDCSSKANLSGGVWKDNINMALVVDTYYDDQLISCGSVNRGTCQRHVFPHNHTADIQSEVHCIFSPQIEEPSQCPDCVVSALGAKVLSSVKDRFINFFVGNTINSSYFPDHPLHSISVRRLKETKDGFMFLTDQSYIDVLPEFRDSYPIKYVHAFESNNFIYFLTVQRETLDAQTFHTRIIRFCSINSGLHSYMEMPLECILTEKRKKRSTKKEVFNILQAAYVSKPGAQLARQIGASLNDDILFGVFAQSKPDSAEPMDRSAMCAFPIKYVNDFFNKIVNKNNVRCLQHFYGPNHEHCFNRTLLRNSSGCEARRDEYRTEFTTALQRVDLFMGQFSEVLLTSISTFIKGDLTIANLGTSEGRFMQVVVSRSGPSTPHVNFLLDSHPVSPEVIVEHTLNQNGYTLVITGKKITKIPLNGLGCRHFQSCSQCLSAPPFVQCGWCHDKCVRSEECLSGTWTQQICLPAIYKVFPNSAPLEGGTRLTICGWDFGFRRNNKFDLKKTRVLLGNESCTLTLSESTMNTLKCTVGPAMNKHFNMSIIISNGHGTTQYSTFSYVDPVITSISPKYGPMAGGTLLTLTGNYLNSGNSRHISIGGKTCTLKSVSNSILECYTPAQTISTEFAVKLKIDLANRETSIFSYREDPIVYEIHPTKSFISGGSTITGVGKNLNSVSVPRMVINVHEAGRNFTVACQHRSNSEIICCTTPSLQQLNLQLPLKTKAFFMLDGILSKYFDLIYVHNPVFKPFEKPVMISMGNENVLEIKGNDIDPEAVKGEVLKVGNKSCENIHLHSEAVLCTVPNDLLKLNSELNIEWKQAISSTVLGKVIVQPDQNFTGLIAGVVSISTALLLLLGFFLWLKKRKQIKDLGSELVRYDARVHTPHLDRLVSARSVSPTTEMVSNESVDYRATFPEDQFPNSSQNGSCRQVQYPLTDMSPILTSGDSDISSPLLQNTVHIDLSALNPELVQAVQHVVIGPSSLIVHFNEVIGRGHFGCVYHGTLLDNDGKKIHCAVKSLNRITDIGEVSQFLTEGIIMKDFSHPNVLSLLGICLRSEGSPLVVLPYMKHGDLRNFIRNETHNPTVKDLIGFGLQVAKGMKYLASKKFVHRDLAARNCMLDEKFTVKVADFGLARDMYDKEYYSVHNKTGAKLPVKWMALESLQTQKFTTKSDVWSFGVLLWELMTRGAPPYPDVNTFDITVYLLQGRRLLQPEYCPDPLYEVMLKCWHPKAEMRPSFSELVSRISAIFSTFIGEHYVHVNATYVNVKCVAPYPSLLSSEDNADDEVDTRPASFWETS
Assay: flow cytometry on SNU-5 cells

| Binder | Percentage of Positive Cells [%] |
| --- | --- |
| B10 | 98.7 |
| B11 | 99.3 |
| B12 | 97.1 |

Molecular target: T3, His-tagged human MET protein (human, UniProt P08581 25-932)
T3 construct: Bought protein; also called hMET-His; not shown: His tag
T3 sequence (P08581 25-932 limits assumed): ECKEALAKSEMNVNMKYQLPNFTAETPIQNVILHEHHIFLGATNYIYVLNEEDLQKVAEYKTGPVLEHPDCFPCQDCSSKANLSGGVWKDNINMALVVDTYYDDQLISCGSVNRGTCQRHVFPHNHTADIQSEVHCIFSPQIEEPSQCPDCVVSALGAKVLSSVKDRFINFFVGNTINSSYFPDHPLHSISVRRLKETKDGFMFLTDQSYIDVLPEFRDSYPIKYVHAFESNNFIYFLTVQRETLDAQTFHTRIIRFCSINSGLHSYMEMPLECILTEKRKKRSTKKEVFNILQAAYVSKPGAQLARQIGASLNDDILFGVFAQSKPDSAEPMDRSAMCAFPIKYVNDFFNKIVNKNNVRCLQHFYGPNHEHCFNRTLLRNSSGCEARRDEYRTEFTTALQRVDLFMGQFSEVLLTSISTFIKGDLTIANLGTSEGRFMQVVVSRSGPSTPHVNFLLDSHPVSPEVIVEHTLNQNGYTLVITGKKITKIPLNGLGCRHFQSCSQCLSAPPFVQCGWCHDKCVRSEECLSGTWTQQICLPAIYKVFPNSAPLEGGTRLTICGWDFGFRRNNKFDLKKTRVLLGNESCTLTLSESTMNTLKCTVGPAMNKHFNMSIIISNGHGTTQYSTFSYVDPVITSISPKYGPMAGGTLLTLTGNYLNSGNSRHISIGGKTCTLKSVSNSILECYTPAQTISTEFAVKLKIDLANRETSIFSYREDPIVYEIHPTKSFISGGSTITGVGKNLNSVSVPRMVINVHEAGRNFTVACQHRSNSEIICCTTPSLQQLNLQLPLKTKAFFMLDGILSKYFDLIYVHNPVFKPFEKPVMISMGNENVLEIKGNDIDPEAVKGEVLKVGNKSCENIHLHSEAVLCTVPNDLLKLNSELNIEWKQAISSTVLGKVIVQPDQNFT
Assay: SPR (Biacore 8K), antibody on Protein A chip

| Binder | Kd [nM] | koff [s⁻¹] | kon [M⁻¹ s⁻¹] |
| --- | --- | --- | --- |
| B10 | 31.9 | 0.00605 | 189000 |
| B11 | 30.1 | 0.000698 | 23200 |
| B12 | 54.2 | 0.00313 | 57700 |

Molecular target: T3, His-tagged human MET protein
Assay: SPR (Biacore 8K), antibody on Protein A chip
Remark: another data set of the same source

| Binder | Kd [nM] | koff [s⁻¹] | kon [M⁻¹ s⁻¹] |
| --- | --- | --- | --- |
| B9 | 18.6 | 0.000505 | 27100 |

Molecular target: T4, His-tagged monkey EGFR protein (monkey (crab-eating macaque; Macaca …, UniProt A0A2K5WK39 25-645)
T4 construct: also called fasEGFR-His; not shown: His tag
Assay: SPR (Biacore 8K), antibody on Protein A chip

| Binder | Kd [nM] | koff [s⁻¹] | kon [M⁻¹ s⁻¹] |
| --- | --- | --- | --- |
| B1 | 90.3 | – | – |
| B2 | 21.3 | 0.00104 | 48700 |
| B3 | 34 | 0.00132 | 38700 |
| B4 | 5.32 | 0.000342 | 64300 |

Molecular target: T5, His-tagged human EGFR protein (human, UniProt P00533 25-645)
T5 construct: Bought protein; also called hEGFR-His; not shown: His tag
Assay: SPR (Biacore 8K), antibody on Protein A chip

| Binder | Kd [nM] | koff [s⁻¹] | kon [M⁻¹ s⁻¹] |
| --- | --- | --- | --- |
| B2 | 23.2 | 0.00101 | 43500 |
| B3 | 39 | 0.00132 | 33900 |
| B4 | 4.69 | 0.000286 | 61000 |

Molecular target: T6, monkey EGFR on CHO-S-fasEGFR cells (monkey (crab-eating macaque; Macaca …, UniProt P55245 25-645)
Assay: flow cytometry on CHO-S-fasEGFR cells; note: test concentration or dose not given here

| Binder | Percentage of Positive Cells [%] |
| --- | --- |
| B5 | 55.4 |
| B6 | 41.5 |
| B7 | 45.9 |
| B8 | 53.7 |

Molecular target: T4, His-tagged monkey EGFR protein
Assay: SPR (Biacore 8K), antibody on Protein A chip
Remark: another data set of the same source

| Binder | Kd [nM] | koff [s⁻¹] | kon [M⁻¹ s⁻¹] |
| --- | --- | --- | --- |
| B5 | 12.6 | 0.00173 | 138000 |
| B6 | 152 | 0.0177 | 117000 |
| B7 | 99.8 | 0.0203 | 203000 |
| B8 | 39.9 | 0.0019 | 47600 |

Molecular target: T5, His-tagged human EGFR protein
Assay: SPR (Biacore 8K), antibody on Protein A chip
Remark: another data set of the same source

| Binder | Kd [nM] | koff [s⁻¹] | kon [M⁻¹ s⁻¹] |
| --- | --- | --- | --- |
| B5 | 9.44 | 0.00176 | 186000 |
| B6 | 98.3 | 0.0151 | 154000 |
| B7 | 60.3 | 0.0152 | 252000 |
| B8 | 27.2 | 0.00177 | 64900 |

Molecular target: T7, monkey MET on fasMET-NIH3T3 cells (monkey (Macaca fascicularis))
T7 sequence (chain, as listed by the source limits assumed): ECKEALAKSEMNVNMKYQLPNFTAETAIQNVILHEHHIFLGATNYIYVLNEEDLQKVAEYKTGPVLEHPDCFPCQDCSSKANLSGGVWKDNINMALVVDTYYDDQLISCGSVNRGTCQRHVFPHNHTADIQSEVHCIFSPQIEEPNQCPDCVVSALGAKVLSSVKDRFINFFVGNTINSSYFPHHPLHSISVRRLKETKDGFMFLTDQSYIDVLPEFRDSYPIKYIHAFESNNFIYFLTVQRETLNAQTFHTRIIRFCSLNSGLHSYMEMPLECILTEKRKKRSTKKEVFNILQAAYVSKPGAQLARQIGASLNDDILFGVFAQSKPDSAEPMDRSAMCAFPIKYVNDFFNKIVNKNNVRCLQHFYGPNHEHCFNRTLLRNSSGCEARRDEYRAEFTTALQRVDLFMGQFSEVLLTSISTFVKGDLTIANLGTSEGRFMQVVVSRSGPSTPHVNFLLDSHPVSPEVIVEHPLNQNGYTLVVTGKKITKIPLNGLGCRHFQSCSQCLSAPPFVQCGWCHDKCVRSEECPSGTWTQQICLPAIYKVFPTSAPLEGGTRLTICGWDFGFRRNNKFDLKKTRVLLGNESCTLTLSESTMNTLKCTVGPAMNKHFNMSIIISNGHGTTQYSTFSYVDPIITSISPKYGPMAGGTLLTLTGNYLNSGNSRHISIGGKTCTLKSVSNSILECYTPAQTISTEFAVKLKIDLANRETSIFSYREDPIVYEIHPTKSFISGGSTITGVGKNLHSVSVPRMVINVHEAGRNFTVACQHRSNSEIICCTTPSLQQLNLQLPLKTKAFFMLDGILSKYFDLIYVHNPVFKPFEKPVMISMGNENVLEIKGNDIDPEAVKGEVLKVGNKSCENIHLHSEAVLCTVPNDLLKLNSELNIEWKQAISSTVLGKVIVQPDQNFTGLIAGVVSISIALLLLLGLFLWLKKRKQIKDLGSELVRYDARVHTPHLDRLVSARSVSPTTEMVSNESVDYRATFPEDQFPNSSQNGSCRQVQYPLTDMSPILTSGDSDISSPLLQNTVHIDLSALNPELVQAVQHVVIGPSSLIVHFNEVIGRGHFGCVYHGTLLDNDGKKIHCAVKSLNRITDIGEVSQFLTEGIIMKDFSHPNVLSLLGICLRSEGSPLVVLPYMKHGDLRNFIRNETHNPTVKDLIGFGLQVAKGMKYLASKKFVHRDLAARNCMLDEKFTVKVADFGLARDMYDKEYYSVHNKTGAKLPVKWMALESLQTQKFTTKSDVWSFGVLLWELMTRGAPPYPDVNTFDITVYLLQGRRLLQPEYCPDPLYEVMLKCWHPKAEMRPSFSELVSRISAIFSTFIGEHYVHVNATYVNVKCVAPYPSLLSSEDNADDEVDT
Assay: flow cytometry on fasMET-NIH3T3 cells; note: test concentration or dose not given here

| Binder | Percentage of Positive Cells [%] |
| --- | --- |
| B10 | 21 |
| B11 | 48.8 |
| B12 | 71.1 |

Molecular target: T6, monkey EGFR on CHO-S-fasEGFR cells
Assay: flow cytometry on CHO-S-fasEGFR cells; note: test concentration or dose not given here
Remark: another data set of the same source

| Binder | Percentage of Positive Cells [%] |
| --- | --- |
| B1 | 25.4 |
| B2 | 23.8 |
| B3 | 24.1 |
| B4 | 28.6 |

Molecular target: T7, monkey MET on fasMET-NIH3T3 cells
Assay: flow cytometry on fasMET-NIH3T3 cells; note: test concentration or dose not given here
Remark: another data set of the same source

| Binder | Percentage of Positive Cells [%] |
| --- | --- |
| B9 | 65.3 |

Molecular target: T4, His-tagged monkey EGFR protein
Assay: SPR (Biacore 8K), Protein A chip

| Binder | binding result | Kd [nM] | koff [s⁻¹] | kon [M⁻¹ s⁻¹] |
| --- | --- | --- | --- | --- |
| B10 | no binding (tested: antigen up to 400 nM) | – | – | – |
| B13 | – | 80.9 | 0.011 | 136000 |
| B1 | – | 158 | – | – |
| B12 | no binding (tested: antigen up to 400 nM) | – | – | – |
| B14 | – | 115 | 0.0198 | 172000 |
| B4 | – | 6.49 | 0.000296 | 45600 |
| B15 | – | 11.8 | 0.000522 | 44300 |

Molecular target: T5, His-tagged human EGFR protein
Assay: SPR (Biacore 8K), Protein A chip

| Binder | binding result | Kd [nM] | koff [s⁻¹] | kon [M⁻¹ s⁻¹] |
| --- | --- | --- | --- | --- |
| B10 | no binding (tested: antigen up to 400 nM) | – | – | – |
| B13 | – | 53.1 | 0.0174 | 328000 |
| B12 | no binding (tested: antigen up to 400 nM) | – | – | – |
| B14 | – | 70.7 | 0.0215 | 304000 |
| B4 | – | 4.22 | 0.000301 | 71500 |
| B15 | – | 6.82 | 0.000503 | 73800 |

Molecular target: T3, His-tagged human MET protein
Assay: SPR (Biacore 8K), Protein A chip

| Binder | Kd [nM] | koff [s⁻¹] | kon [M⁻¹ s⁻¹] | binding result |
| --- | --- | --- | --- | --- |
| B10 | 63.6 | 0.00362 | 57000 | – |
| B13 | 41.7 | 0.00165 | 39500 | – |
| B1 | – | – | – | no binding (tested: antigen up to 400 nM) |
| B12 | 55.6 | 0.0022 | 39600 | – |
| B14 | 50.5 | 0.00187 | 37000 | – |
| B4 | – | – | – | no binding (tested: antigen up to 400 nM) |
| B15 | 28.1 | 0.00109 | 38700 | – |
